# Source: patent US20250353901A1 (ON TARGET MOLECULES BIOTECH, published 2025)
# T1: synthetic peptide HRCLQQLCCRKKPG
# T1 construct: Variant of P2X7 residues 491-504, used as the counter-screen peptide; also called the wild type SNP at position 496 which is Q
# T1 peptide: HRCLQQLCCRKKPG
# Biological target: T1, synthetic peptide HRCLQQLCCRKKPG
# Assay: in-vitro cross-reaction of hybridoma monoclonal antibodies against the synthetic peptide
# Description: For the generation of monoclonal antibodies, hybridoma cell lines expressing the desired antibody were produced. Techniques for the production of monoclonal antibodies are well known in the art. Animals were presented with the carboxyl-terminal antigen sequence […] conjugated to KHL. Murine hybridoma cells were produced and screened according to standard protocols. Monoclonal antibodies harvested after clonal selection of the hybridomas expressed from the variable regions of the monoclonal antibodies raised against the antigen, were tested for their capacity to bind this antigen.
binder,measurement,value
"Clone 3: 6H5.C10 Isotype Ig1 k (antibody, V domains shown, Murine hybridoma monoclonal antibody, isotype printed as 'Ig1 k') VH: QVTLKESGPGILQPSQTLSLTCSFSGFSLSTFGMGVGWIRQPSGKGLEWLAHIWWDDYKYYNPALKSRLTISKDTSKNQVFLKIANVDTADTATYYCARISYYGSSYLDYWGQGTTLTVSS VL: DVVMTQTPLSLPVSLGDQASISCRSSQSLVHSNGNTYLHWYLQKPGQSPKLLIYKVSNRFSGVPDRFSGSGSGTDFTLKISRVEAEDLGVYFCSQTTHVPYTFGGGTKLEIKR",binding result,no binding
